According to the DeepSol protein solubility set:

Assay: soluble on expression in E. coli; label from the status in PepcDB or PDB records

Row | Sequence | soluble on expression in E. coli
1 | DVTNAEKLVYKYTNIAHSANPMYEAPSITDGKIFFNRKFKTPSGKEAACASCHTNNPANVGKNIVTGKEIPPLAPRVNTKRFTDIDKVEDEFTKHCNDILGADCSPSEKANFIAYLLTETKPTK | soluble
2 | MKIVCIGAAPTALGAAYRLNELKNEGNEAAQNAEIVLLEQEAIAGGLSCTVTDEKGFLWDMGGHITFNHNYPYYEKATQWAVDDWNKLARNCMVDMNYLYDKKGIHLVPYPAQFAVPLFPDEVKNRCLADLKERYENPQDGTTPDNFEEWVLQHFGPTILNTFFKPYTKKVWTVEPLKMSPNWVGSRVAKLPQEKLEELCSMDQAELANADFGWGPNSYFTFPTYGGTGNVWNSMAKKLPNEWFKFNNKVTGVDHKEKTVEILEKGQTEPTKMSYDVLLNTAPIDQLVNNTQITAPLDIVHNKVFIVGVGLRKPMTSFLEKFTWLYFPDREVPFFRVTILSRYGEVTPDGDKYWSVMCECARPIDDPITEEEMVKKTLDGLVIKDMITREAIESVYSITLPYGYPIPTPNRDRELARAHGELERHQIYSRGRFGGWKYEASNQDHCFIQGKEFIDRVILGEPEKLYKTGVPTIPRGAAALEHHHHHH | soluble
3 | MTLSIIVAHDKQRVIGYQNQLPWHLPNDLKHIKQLTTGNTLVMARKTFESIGKPLPNRRNVVLTNQASFHHEGVDVINSLDEIKELSGHVFIFGGQTLYEAMIDQVDDMYITVIDGKFQGDTFFPPYTFEDWEVESSVEGQLDEKNTIPHTFLHLVRRKGK | soluble
4 | MLGGSLYQVYAIKEAVKMGYYVITCDYLPNNPGHQYAHEYYNVSTTDKEAVYELAKRLQVDGVVAYASDPAAPTAAYVCEKLGLPTSPYTSVEILSQKDLFRRYLAEHNFNVPKYVGCSSYTEALEQIKNLTLPVMIKPVDSSGSKGINKLTNVDQLKDFIEDALSYSREKRIIIEEFIEKDGYQISGDAFSVDGILKFHCFGNEYYSSSVVKDFAPLGECWPFQMKPEIITELEKDIQRLISELKMGTTAYNVEAILGKNGKLYILELGARSGGSLIPQITELATGVNMVKYVIKAALGEDCSEIEMSPARGYWSNYMLHSKQTGRFKEISFDENFAKNNLVDCVTELKSGDNVHAFRDAGDALGTLILKYSSKEEMFNVIENMDQFVHIIID | not soluble
5 | GYMDLMPFINKAGCECLNESDEHGFDNCLRKDTTFLESDCDEQLLITVAFNQPVKLYSMKFQGPDNGQGPKYVKIFINLPRSMDFEEAERSEPTQALELTEDDIKEDGIVPLRYVKFQNVNSVTIFVQSNQGEEETTRISYFTFIGTPVQATNMNDFK | soluble
6 | MGHHHHHHHHHHSSGHIEGRHMIRLGYPCENLTLGATTNRTLRLAHLTEERVREKAAENLRDLERILRFNADHGFALFRIGQHLIPFASHPLFPYDWEGAYEEELARLGALARAFGQRLSMHPGQYVNPGSPDPEVVERSLAELRYSARLLSLIGAEDGVLVLHLGGAYGEKGKALRRFVENLRGEEEVLRYLALENDERLWNVEEVLKAAEALGVPVVVDTLHHALNPGRLPLEEALRLAFPTWRGRPRVHLASQDPKKRPGAHAFRVTREDWERLLSALPGPADVMVEAKGKEQGLATP | soluble
7 | SLIDKIKSNARDLRRNLTLQERKLWRYLRSRRFSDFKFRRQHPVGSYILDFACCSARVVVELDGGQHDLAVAYDSRRTSWLESQGWTVLRFWNNEIDCNEETVLENILQELNRRSPSP | soluble
8 | GSMGDTKEQRILRYVQQNAKPGDPQSVLEAIDTYCTQKEWAMNVGDAKGQIMDAVIREYSPSLVLELGAYCGYSAVRMARLLQPGARLLTMEMNPDYAAITQQMLNFAGLQDKVTILNGASQDLIPQLKKKYDVDTLDMVFLDHWKDRYLPDTLLLEKCGLLRKGTVLLADNVIVPGTPDFLAYVRGSSSFECTHYSSYLEYMKVVDGLEKAIYQGPSSPDKS | soluble
9 | MAHHHHHHMWYSNLFVAKLPRHLCDGDLLQIFSNFNPLGAKIMLDPSTGNSKGFGFVLFDKEEEGRTAYERLNRKLVRVCNSSFNLLIYPSQHNGKAVTLPSRAVYIRNIPTTMGEREVQNFLSNLAPLEYCAMRGDHHGNPVWVVYAEFDTPQNAQRVLDKLHGNSNHFGGPPIMVKYADTDEAKRERRRRREEGRLAPGPALKGACLFPPPRPGVVSLNQTQVSQSATETSPSCSPAAHHVTKTKMVAPMVEVEPRAQPLYFSTSPVTAMPPLLPVDMSYDGAAATVPLQTADCPAANGVLVLGNGQQVFLTPNAVNLHPTKFNAPPTALLVPAVDTTLVPLPPQRTLVYGPW | not soluble
10 | MQLPVMPPVSPMLAKSVTAIPPDASYEPKWDGFRSICFRDGDQVELGSRNERPMTRYFPELVAAIRAELPHRCVIDGEIIIATDHGLDFEALQQRIHPAESRVRMLADRTPASFIAFDLLALGDDDYTGRPFSERRAALVDAVTGSGADADLSIHVTPATTDMATAQRWFSEFEGAGLDGVIAKPPHITYQPDKRVMFKIKHLRTADCVVAGYRVHKSGSDAIGSLLLGLYQEDGQLASVGVIGAFPMAERRRLLTELQPLVTSFDDHPWNWAAHVAGQRTPRKNEFSRWNVGKDLSFVPLRPERVVEVRYDRMEGARFRHTAQFNRWRPDRDPRSCSYAQLERPLTVSLSDIVPGLR | not soluble
11 | MSQLYAQEPRLGIPDSMLRYGTVVTMEQGDTVYDIALPQVWVKHKKYKSRQLTPQERQELWRLIRDVKRTLPYAKMIAATLIETYEYMETMPDEKSRQKHLKRMEKEMKQQYMPEMKRLTLRQGKLLIKLIDRQCAQSSYQLLKAFLGGWKAGWWNLFARFYGASLKTRYEPDKNPEDALTERIVLLVEEKRI | not soluble
12 | MGHHHHHHSHMSHGHSHGGGGCRCAAEREEPPEQRGLAYGLYLRIDLERLQCLNESREGSGRGVFKPWEERTDRSKFVESDADEELLFNIPFTGNVKLKGIIIMGEDDDSHPSEMRLYKNIPQMSFDDTEREPDQTFSLNRDLTGELEYATKISRFSNVYHLSIHISKNFGADTTKVFYIGLRGEWTELRRHEVTICNYEASANPADHRVHQVTPQTHFIS | not soluble
13 | MVLYFIGLGLYDERDITVKGLEIAKKCDYVFAEFYTSLMAGTTLGRIQKLIGKEIRVLSREDVELNFENIVLPLAKENDVAFLTPGDPLVATTHAELRIRAKRAGVESYVIHAPSIYSAVGITGLHIYKFGKSATVAYPEGNWFPTSYYDVIKENAERGLHTLLFLDIKAEKRMYMTANEAMELLLKVEDMKKGGVFTDDTLVVVLARAGSLNPTIRAGYVKDLIREDFGDPPHILIVPGKLHIVEAEYLVEIAGAPMEILRVNV | soluble
14 | MGSDKIHHHHHHMAIGIVIASHGEFAAGIHQSGSMIFGDQEKVQVVTFMPSEGPDDLYAKFNDAIAAFDADDEILVLADLWSGSPFNQASRVMEENSDRKFAIITGLNLPMLIQAYTERMMDAAAGVEQVAANIIKEAKDGVKILPEKLQPQEEAPTTSTKKAAPQGAIPEGTVIGDGKLKINLARVDTRLLHGQVATNWTPASKADRIIVASDTVAKDELRKGLIKQAAPGGVKANVVPIKKLIEAAKDPRFGNTHALILFETPQEALEAIEGGVPITELNIGSMAHSTGKTMVNNVISMDKDDVATFEKLRDLGVKFDVRKVPNDSQKDLFELIEKAHVQ | not soluble
15 | SEESRESPAEHGYYMPAEWDSHAQTWIGWPERQDNWRHNALPAQRVFAGVAKAISKFEPVTVCASPAQWENARKQLPEDIRVVEMSMNDSWFRDSGPTFIVRKRPVKLSSLNRNIAGIDWNFNAWGGANDGCYNDWSHDLLVSRKILALERIPRFQHSMILEGGSIHVDGEGTCLVTEECLLNKNRNPHMSKEQIEEELKKYLGVQSFIWLPRGLYGDEDTNGHIDNMCCFARPGVVLLSWTDDETDPQYERSVEALSVLSNSIDARGRKIQVIKLYIPEPLYMTEEESSGITQDGEAIPRLAGTRLAASYVNFYIANGGIIAPQFGDPIRDKEAIRVLSDTFPHHSVVGIENAREIVLAGGNIHCITQQQPAEPTSVAENGH | soluble
16 | MSLKLTGEESDTLRKIVLEECLPNQQQNQNPSPCAEVKPNAGYVVLKDLNGPLQYLLMPTYRINGTESPLLTDPSTPNFFWLAWQARDFMSKKYGQPVPDRAVSLAINSRTGHTQNHFHIHISCIRPDVREQLDKNLANISSRWLPLPGGLRGHEYLARRVTESELVQRSPFMMLAEEVPEAREHMGSYGLAMVRQSDNSFVLLATQRNLLTLNRASAEEIQDHECEILREGHHHHHH | soluble
17 | QVQLVESGGGSVQAGGSLRLSCTASGYTIGPYCMGWFRQAPGGEREAVAAINMGGGITYYADSVKGRFTISRDNAKNTVTLQMNSLKPEDTAMYYCAADSTIYASYYECGHGLSTGGYGYDSWGQGTQVTVSSRGRHHHHHH | soluble
18 | SMPAYACQRPSPLTHHNTLLSEALETLAEAAGFEANEGRLLSFSRAASVLKSLPCPVASLSQLHGLPYFGEHSTRVIQELLEHGTCEEVKQVRCSERYQTMKLFTQVFGVGVKTANRWYQEGLRTLDELREQPQRLTQQQKAGLQYYQDLSTPVRRADAEALQQLIEAAVRQTLPGATVTLTGGFRRGKLQGHDVDFLITHPEEGQEVGLLPKVMSCLQSQGLVLYHQYHRSHLADSAHNLRQRSSTMDVFERSFCILGLPQPQQAALAGALPPCPTWKAVRVDLVVTPSSQFPFALLGWTGSQFFERELRRFSRQEKGLWLNSHGLFDPEQKRVFHATSEEDVFRLLGLKYLPPEQRNA | soluble
19 | MAIKNAFYAQSGGVTAVINASACGVIQTARKHPDQIGKVYAGRNGIIGALKEELIDTSLESDDAIQALIHTPGGAFGSCRYKLKNISENQREYERLIEVFRAHDIGYFFYNGGGDSQDTAYKVSQLADRMGYPITCIGVPKTVDNDLPFTDCCPGFGSVAKYIATSTLEASLDIKSMCETSTKVFILEVMGRHAGWIAAAGGLAGQSEGEPPHVILFPEIPFNREKFLERVDQCVRDYGYCVVVASEGAQYEDGRFVADAGAKDAFGHTQLGGVAPALANMVKQALGHKYHWAVADYLQRAARHIASATDVEQAYAVGKAAVEMALAGKQALMPTIVRDQAKPYRWSIGEANLSEVANQEKKMPIHYITDNGFGITQDCRDYLQPLIAGESFPPFDDGLPRVAKLKNQLVEKKLRTEFEL | soluble
20 | MGSDKIHHHHHHMNQHTLLPKKTERLQYFGSVSPIKGEKPVEKEKMKDLQNIRKDYFFDIQHVGVANVSHPVTITSAMMPAEQTTAANFTMTCNLPRNQKGINMSRLTELLQVYHQNGWILSFSSLQQFTKELAENMDTSSATVEVRFPWFFERKSPKLEKAGLMHADIFMSVTYRKDQPFKQRAGISAKVTTLCPCSKEISEYSAHNQRGTVKHLGRIFTRAASLPSDVKADLPHAAESNASARLHPVLKRPDEKAVTETAYENPRFVEDLARLIAADLFELEWVSAFEIECRNEESIHLHRCLCEVCFSKEVDKI | not soluble
21 | MSLEMTIAYIQENPYRLADEISGIGFKKADQIARAMGISLNSKYRIHSGIKYMLGTFHGEGHTYAPGDILIDRTRELLSVEESEVVEGIQELALKQKIQLERQDEEIIVYSMPYFYAETNTCNKLIELSQVELEPLEIDVDYEIESIEKEDGIALATNQKEAIRQSIENGIIVITGGPGTGKTTIINTLIKVFGKLKKKILLAAPTGRASKRMTEATGKEAKTIHRLLEMGYSDDDDGMLFQRNEENPLPADIIIIDEVSMVDIMLMNSLLKAISVGTRLIFVGDVDQLPSVGAGNVLRDIIDSKIIKVVRLNEIFRQAEESMIVVNAHKINKGEYPILNHKDKDFYFMSRSRSEDILNTIIGLVKERLPKHYKFDPIKDIQVLTPMKKGEVGSINLNKELQNYLNPPDKYKREKELREKVFRVGDKVMQIKNNYTLKWASLDPDTEERQGEGVFNGDMGYIQHINPEAQELTVFFDDNRSVVYTYTQLDELELAYAITIHKSQGSEFPVVVMPVTWGPPMLLTRNLLYTAITRARSLVVLVGTENYLNLMVSNNKIVERYSGLGIRLKKFYNEGHHHHHH | soluble
